Assay results taken from patent US20040072333A1, “Method of purifying lantibiotics” (ImmuCell Corporation, priority 2002, published 2004).
Where no end group is shown, it is not given here.

How the values were obtained:
[1] = system: non-mastitic cows; experiment: Mammary infusion, somatic cell count of quarter milk; type: in vivo
Method: Bovine intra-mammary infusion of impure nisin stimulates the production of high levels of somatic cells in milk as part of an inflammatory reaction.
Non-mastitic cows were treated with an infusion of vehicle, untreated, and trypsin-treated nisin (30 mg/10 ml) in the quarter after the 4th, 5th, and 6th milkings. The somatic cell count of the milk was recorded before, during, and after milking. High somatic cell counts were indicative of an inflammatory reaction. Statistical analysis was carried out using two sided t-Test comparisons with unequal variance.

[2] = system: mastitic isolate of Streptococcus agalactiae (strain #20); experiment: Antibacterial 96 well plate assay; type: cell-based; conditions: bacterial growth read as absorbance
Method: To confirm that the biological activity of nisin is also unaltered, in vitro bactericidal activity assay was performed. Trypsin-treated nisin was analyzed for antibacterial activity against a mastitic isolate of Streptococcus agalactiae (strain #20) in a 96 well plate assay and bacterial growth was read as absorbance readings on an ELISA reader.
Nisin activity was determined using an antibacterial assay against a mastitic isolate of Streptococcus agalactiae (IC 20) in a 96 well plate assay. Test samples were serially diluted into M17 10% lactose medium and then mixed with an equal volume of 10^4 cfu/ml. After 66 hr of incubation at room temperature, the plates were read on an ELISA reader at 450 nm. Wells containing bacterial growth gave high absorbance readings. The data was analyzed using a four-parameter curve-fitting software.

[3] = system: pepsin; experiment: Protease digestion with pepsin; type: physicochemical
Method: (§1) Nisin is comparatively resistant to proteolysis by trypsin under the optimized conditions described above. To determine whether nisin is also resistant to other proteolytic enzymes under similar conditions, partially purified nisin was exposed to pepsin, thrombin, V8 protease (Endo Gluc), subtilisin, papain, thermolysin, or clostripain at pH 5.80. Pepsin exposure was also performed at pH 3.50. […] Pepsin at pH 5.80 and thrombin appeared ineffective against the impurities as well.
(§2) Digestion experiments using pepsin (EC3.4.23.1), thrombin (EC3.4.21.5), V8 protease (EC3.4.21.19), subtilisin (EC3.4.21.62), papain (EC3.4.22.2), thermolysin (EC3.4.24.27), and clostripain (EC3.4.22.8) were performed essentially as described for trypsin and at pH 5.80. Pepsin digestion was also performed at pH 3.50. For trypsin digestions using trypsin linked to a solid matrix (e.g. insoluble trypsin), 1.6 liters of partially purified nisin was prepared at 9.5 mg/ml in 10 mM Tris HCl and pH 5.50. Following the addition of 1.6 ml of TPCK-treated trypsin bound to beaded agarose (Sigma Chemical Company), the reaction mixture was incubated at 30° C. for 6 hours with frequent agitation. Insoluble trypsin was removed by centrifugation at approximately 4000×g for 7 minutes. The resultant supernatant containing nisin was prepared for HPLC analysis.

[4] = target: T1, clostripain (Hathewaya histolytica, UniProt P09870); experiment: Protease digestion with clostripain; type: physicochemical; conditions: pH 5.80
T1 sequence (P09870 whole entry, looked up): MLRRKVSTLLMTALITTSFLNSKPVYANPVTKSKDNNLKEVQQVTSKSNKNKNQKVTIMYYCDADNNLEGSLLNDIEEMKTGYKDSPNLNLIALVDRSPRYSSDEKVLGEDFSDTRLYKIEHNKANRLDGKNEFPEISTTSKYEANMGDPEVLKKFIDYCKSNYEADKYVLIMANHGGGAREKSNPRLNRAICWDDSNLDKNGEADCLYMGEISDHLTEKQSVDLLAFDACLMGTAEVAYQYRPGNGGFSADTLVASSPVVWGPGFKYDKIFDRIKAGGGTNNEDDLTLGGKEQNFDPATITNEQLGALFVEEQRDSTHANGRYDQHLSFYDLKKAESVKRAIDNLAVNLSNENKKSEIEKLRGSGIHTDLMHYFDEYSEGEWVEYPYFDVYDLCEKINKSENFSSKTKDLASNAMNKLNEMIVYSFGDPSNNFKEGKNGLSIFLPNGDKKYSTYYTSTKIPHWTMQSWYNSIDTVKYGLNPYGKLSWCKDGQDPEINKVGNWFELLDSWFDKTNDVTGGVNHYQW
Method: as §1, §2

[5] = target: T2, papain (Carica papaya, UniProt P00784); experiment: Protease digestion with papain; type: physicochemical; conditions: pH 5.80
T2 sequence (P00784 134-345): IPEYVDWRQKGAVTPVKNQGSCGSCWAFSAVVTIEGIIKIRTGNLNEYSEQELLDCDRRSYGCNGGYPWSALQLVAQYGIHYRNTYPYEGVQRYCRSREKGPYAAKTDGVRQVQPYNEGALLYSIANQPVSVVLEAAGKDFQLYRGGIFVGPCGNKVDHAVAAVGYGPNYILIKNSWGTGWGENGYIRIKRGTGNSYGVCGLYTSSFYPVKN
Method: as §1, §2

[6] = target: T3, TPCK treated insoluble trypsin (Bos taurus, UniProt P00760); experiment: Insoluble trypsin (bound to beaded agarose) digestion, HPLC; type: physicochemical; conditions: 9.55 mg/ml, 1.6 ml insoluble trypsin on agarose, 6 hr, 30° C., trypsin removed by centrifugation
T3 construct: purchased Sigma Chemical Company
T3 sequence (P00760 24-246): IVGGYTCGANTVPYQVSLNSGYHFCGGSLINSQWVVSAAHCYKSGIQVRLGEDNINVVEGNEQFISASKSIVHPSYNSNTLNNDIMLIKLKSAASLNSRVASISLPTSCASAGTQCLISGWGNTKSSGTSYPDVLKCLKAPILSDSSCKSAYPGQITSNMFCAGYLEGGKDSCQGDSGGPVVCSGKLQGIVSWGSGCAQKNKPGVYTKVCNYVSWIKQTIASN
Method: To determine whether insoluble trypsin treatment of nisin preparations was also effective in digestion of impurities, but not nisin itself, 1.6 liters of partially purified nisin prepared at 9.55 mg/ml was treated with 1.6 ml of TPCK treated insoluble trypsin bound to beaded agarose. After 6 hr of incubation at 30° C., and following removal of insoluble trypsin by centrifugation, the overall nisin recovery was about 90%.
as §2

[7] = target: V8 protease (Endo Gluc) (Staphylococcus aureus, UniProt P0C1U8); experiment: Protease digestion with V8 protease; type: physicochemical; conditions: pH 5.80
Method: as §1, §2

[8] = system: trypsin; experiment: Soluble trypsin digestion at low pH and low trypsin to nisin ratio, HPLC; type: physicochemical; conditions: below pH 5.50, nisin 11 mg/ml, trypsin 27.5 μg/ml (400:1 w/w), overnight, room temperature
Method: Peptide analysis has identified over 40 peptides that co-purify with nisin. All of these peptides have been identified as being products of Lactococcus fermentation. Since it was determined that nisin, at neutral to slightly alkaline pH and high trypsin to nisin ratios, is subject to proteolysis by trypsin, conditions were altered in an attempt to identify conditions under which trypsin would not degrade nisin but would degrade the peptide impurities in the nisin sample. Reaction mixtures containing nisin preparations, at a concentration of 11 mg/ml, and USP grade trypsin at a concentration of 27.5 μg/ml, were incubated overnight at room temperature (400:1 w/w). The pH of the mixtures ranged from 5.25 to 6.5.
To further optimize the conditions for removal of peptide impurities from nisin preparations by tryptic digestion, two liters of partially purified nisin was prepared at 4.55 mg/ml and incubated with 25 mg of USP grade trypsin for 16 hrs at 30° C. in 10 mM citric acid, pH 5.80. […] Moreover, subsequent removal of trypsin using a molecular weight cut off membrane yielded a recovery of 87.5% nisin and 0.38% trypsin.
For treatment of nisin with soluble trypsin, 2 liters of partially purified nisin from a fermentation product was prepared at 4.55 mg/ml in 10 mM citric acid buffer and 5 mM CaCl2. […] Nisin recovery and purity was determined by SDS-PAGE and HPLC. […]

[9] = target: thrombin (Homo sapiens, UniProt P00734); experiment: Protease digestion with thrombin; type: physicochemical; conditions: pH 5.80
Method: as §1, §2

[10] = target: thermolysin (Bacillus thermoproteolyticus, UniProt P00800); experiment: Protease digestion with thermolysin; type: physicochemical; conditions: pH 5.80
Method: as §1, §2

[11] = system: trypsin; experiment: Tryptic digestion of nisin at pH 7.0, SDS-PAGE and HPLC; type: physicochemical; conditions: pH 7.0, nisin to trypsin about 10:1 (w/w), 30° C., after 96 hr
Method: Nisin has two internal lysine residues that are potential targets of the proteolytic enzyme trypsin. To determine whether nisin could be digested by trypsin, a digestion reaction mixture was prepared where a nisin preparation, partially purified nisin from a fermentor run, was exposed to trypsin under conditions optimal for trypsin activity. These conditions included a reaction pH of 7.0 and a nisin to trypsin ratio of about 10:1 (w/w). Samples were incubated at 30° C. and aliqoutes were removed for analysis every 24 hr, beginning at time zero. […] After 96 hr of treatment, more than 90% of nisin was degraded.
Tryptic digestion of nisin (50 mg) was carried out in 50 ml of a buffer consisting of 25mM sodium acetate, 6 mM Tris acetate, 5 mM CaCl2, and pH 7.0. One ml of USP grade trypsin (5mg/ml) was added followed by incubation at 30° C. Thereafter, 500 μl aliqouts of trypsin were added at times 24, 48, 72, and 96 hours. At each time point in the experiment, 2 ml aliquots were removed for further analysis, of which […] was immediately plated on blood agar plates for determination of contamination. The remaining 1.8 ml was stored at −20° C. until the end of experiment for SDS-PAGE and HPLC analysis.

[12] = target: subtilisin (Bacillus licheniformis, UniProt P00780); experiment: Protease digestion with subtilisin; type: physicochemical; conditions: pH 5.80
Method: as §1, §2

Sequence of V8 protease (Endo Gluc) (P0C1U8 69-336): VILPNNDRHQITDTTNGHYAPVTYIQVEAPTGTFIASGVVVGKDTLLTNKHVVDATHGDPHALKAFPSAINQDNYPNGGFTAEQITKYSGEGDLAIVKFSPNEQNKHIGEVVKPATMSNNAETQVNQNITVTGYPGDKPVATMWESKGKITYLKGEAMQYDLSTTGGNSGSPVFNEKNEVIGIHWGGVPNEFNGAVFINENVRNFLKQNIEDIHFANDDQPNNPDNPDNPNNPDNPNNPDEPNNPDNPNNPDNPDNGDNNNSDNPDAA
Sequence of thermolysin (P00800 233-548): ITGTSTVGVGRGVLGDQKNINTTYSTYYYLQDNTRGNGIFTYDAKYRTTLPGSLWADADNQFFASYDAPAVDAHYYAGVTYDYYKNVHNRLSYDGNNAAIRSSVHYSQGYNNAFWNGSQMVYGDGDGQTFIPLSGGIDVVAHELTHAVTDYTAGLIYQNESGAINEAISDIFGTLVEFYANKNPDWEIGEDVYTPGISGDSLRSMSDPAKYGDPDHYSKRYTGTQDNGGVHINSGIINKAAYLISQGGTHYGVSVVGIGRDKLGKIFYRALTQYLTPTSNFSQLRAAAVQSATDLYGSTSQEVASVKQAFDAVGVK
Sequence of subtilisin (P00780 106-379): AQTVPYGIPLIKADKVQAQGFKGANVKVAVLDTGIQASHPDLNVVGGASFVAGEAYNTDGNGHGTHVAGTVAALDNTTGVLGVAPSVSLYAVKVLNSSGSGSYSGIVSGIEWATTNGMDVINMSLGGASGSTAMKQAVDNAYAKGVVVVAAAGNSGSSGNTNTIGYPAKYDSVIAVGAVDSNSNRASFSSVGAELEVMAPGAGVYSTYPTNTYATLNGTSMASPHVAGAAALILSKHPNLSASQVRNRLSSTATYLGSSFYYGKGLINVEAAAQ

trypsin/nisin: nisin preparation purified by selective trypsin digestion of peptide impurities (ITSISLCTPGCKTGALMGCNMKTATCHCSIHVSK; also: lantibiotic nisin-A: lanthionine thioether rings, Dha/Dhb, positions not given here; UniProt P13068 24-57, looked up)
somatic cell count of milk from treated quarters (inflammatory reaction), summary in words ([1]; intra-mammary infusion of 30 mg, non-mastitic cows): much lower and is not statistically different from quarters treated with buffer alone | Somatic Cell Count of Quarter Milk, mean of group ([1]; milking 1 (before treatments; infusions 30 mg/10 ml given after 4th, 5th, 6th milkings)): 10 X1000 | Somatic Cell Count of Quarter Milk, mean of group ([1]; milking 2 (before treatments)): 22 X1000 | Somatic Cell Count of Quarter Milk, mean of group ([1]; milking 3 (before treatments)): 23 X1000 | Somatic Cell Count of Quarter Milk, mean of group ([1]; milking 4 (before first treatment)): 21 X1000 | Somatic Cell Count of Quarter Milk, mean of group ([1]; milking 5, infusions 30 mg/10 ml after 4th, 5th, 6th milkings): 54 X1000 | Somatic Cell Count of Quarter Milk, mean of group ([1]; milking 6): 187 X1000 | Somatic Cell Count of Quarter Milk, mean of group ([1]; milking 7): 300 X1000 | Somatic Cell Count of Quarter Milk, mean of group ([1]; milking 8): 148 X1000 | Somatic Cell Count of Quarter Milk, mean of group ([1]; milking 9): 106 X1000 | Somatic Cell Count of Quarter Milk, mean of group ([1]; milking 10): 82 X1000 | Somatic Cell Count of Quarter Milk, mean of group ([1]; milking 11): 103 X1000 | Somatic Cell Count of Quarter Milk, mean of group ([1]; milking 12): 81 X1000 | Somatic Cell Count of Quarter Milk, mean of group ([1]; milking 13): 60 X1000 | Somatic Cell Count of Quarter Milk, mean of group ([1]; milking 14): 36 X1000 | Somatic Cell Count of Quarter Milk, mean of group ([1]; milking 15): 53 X1000 | Somatic Cell Count of Quarter Milk, mean of group ([1]; milking 16): 37 X1000 | Somatic Cell Count of Quarter Milk, mean of group ([1]; milking 17): 40 X1000 | Somatic Cell Count of Quarter Milk, mean of group ([1]; milking 18): 41 X1000 | antimicrobial activity compared with control, untreated nisin [2]: not substantially different

nisin (ITSISLCTPGCKTGALMGCNMKTATCHCSIHVSK; cysteine pairing not given here; also: lantibiotic nisin-A, modified residues not placed; UniProt P13068 24-57, looked up) [lysine-rich lantibiotic, polypeptide antimicrobial agent with lanthionine and β-methyl-lanthionine residues, used as food preservative]
proteolytic digestion of nisin by pepsin ([3]; pH 3.50): did not digest nisin | proteolytic digestion of nisin by pepsin ([3]; pH 5.80): resistant | proteolytic digestion of nisin by clostripain [4]: resistant | proteolytic digestion of nisin by papain [5]: resistant | overall nisin recovery after insoluble trypsin incubation [6]: about 90% | proteolytic digestion of nisin by V8 protease [7]: resistant | hydrolysis of nisin by trypsin [8]: minimal hydrolysis | proteolytic digestion of nisin by thrombin [9]: resistant | proteolytic digestion of nisin by thermolysin [10]: resistant | nisin degraded by trypsin [11]: more than 90% | proteolytic digestion of nisin by subtilisin [12]: resistant
